Values belong to the binder of their own block, whether it stands above or below them.
Columns and labels:
[1] = target: T1, mouse OSCAR extracellular domains fused to human IgG1 Fc (Mus musculus (Mouse)., UniProt Q8VBT3); assay: BLI; Octet; IgG (5 ug/mL) captured on FAB2G sensor; 4.69-75 nM hOSCAR-Fc or mOSCAR-Fc (two-fold serial dilution) in PBST; 1:1 Langmuir model; conditions: both partners purified
T1 construct: osteoclast-associated receptor (OSCAR), mouse, extracellular domains 'corresponding' to amino acids 19-233 of human OSCAR; also called mOSCAR-Fc; mOSCAR; source: FreeStyle 293F, transfected (pVITRO1), secreted, purified (Protein G-Sepharose)
T1 sequence (Q8VBT3 19-231): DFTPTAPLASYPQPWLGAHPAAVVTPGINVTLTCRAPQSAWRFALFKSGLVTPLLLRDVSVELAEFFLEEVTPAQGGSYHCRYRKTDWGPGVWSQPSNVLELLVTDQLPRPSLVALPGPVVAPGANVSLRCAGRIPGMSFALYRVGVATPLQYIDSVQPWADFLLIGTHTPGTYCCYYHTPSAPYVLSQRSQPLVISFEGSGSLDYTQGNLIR

[2] = target: T1, mouse OSCAR extracellular domains fused …; assay: ELISA; serial dilution ELISA of IgG-format antibodies against hOSCAR-Fc and mOSCAR-Fc; EC50; conditions: both partners purified
[3] = target: T2, human OSCAR extracellular domains fused to human IgG1 Fc (human) (UniProt Q8IYS5); assay: as above
T2 sequence: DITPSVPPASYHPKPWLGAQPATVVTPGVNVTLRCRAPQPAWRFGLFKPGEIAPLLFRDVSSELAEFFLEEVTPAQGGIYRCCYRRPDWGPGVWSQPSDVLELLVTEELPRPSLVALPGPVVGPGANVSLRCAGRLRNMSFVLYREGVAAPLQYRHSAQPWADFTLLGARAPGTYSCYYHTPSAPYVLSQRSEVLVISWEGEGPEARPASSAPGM

[4] = target: T3, human OSCAR extracellular domains fused to human IgG1 Fc (Homo sapiens, UniProt Q8IYS5-2); assay: as above; conditions: both partners purified
T3 construct: osteoclast-associated receptor (OSCAR), human, extracellular domains, amino acids 19-233; also called hOSCAR-Fc; hOSCAR; source: FreeStyle 293F, transfected (pVITRO1), secreted, purified (Protein G-Sepharose)

[5] = target: T3, human OSCAR extracellular domains fused …; assay: BLI; Octet; IgG (5 ug/mL) captured on FAB2G sensor; 4.69-75 nM hOSCAR-Fc or mOSCAR-Fc (two-fold serial dilution) in PBST; 1:1 Langmuir model; conditions: both partners purified
[6] = target: T3, human OSCAR extracellular domains fused …; assay: ELISA; serial dilution ELISA of IgG-format antibodies against hOSCAR-Fc and mOSCAR-Fc; EC50; conditions: both partners purified; remark: listed apart in the source
[7] = target: anti-OSCAR antibody D11, human IgG1; assay: BLI; Octet; IgG (5 ug/mL) captured on FAB2G sensor; 4.69-75 nM hOSCAR-Fc or mOSCAR-Fc (two-fold serial dilution) in PBST; 1:1 Langmuir model

Kd [1]: 2.87 nM
koff [1]: 0.000254 s⁻¹
kon [1]: 91300 M⁻¹ s⁻¹
EC50 [2]: 151 nM
EC50 [3]: > 1000 nM
B1: anti-OSCAR antibody D11, human IgG1 (antibody, V domains shown)
VH: EVQLLESGGGLVQPGGSLRLSCAASGFTFSDYYWTWVRQAPGKGLEWVSGSPVFGAANYAQNFQGRFTISRDNSKNTLYLQMNSLRAEDTAVYYCAKAGFTGGHFDIWGQGTLVTVSS
VL: QSVLTQPPSASGTPGQRVTISCSGSSSNIGNNYVSWYQQLPGTAPKLLIYGNSNRPSGVPNRFSGSKSGTSASLAISGLRSEDEADYYCQSYDSSSWLFGGGTKLTVL
notes: VH before CDR-H3 (clone from a synthetic human scFv library); rest of VH after CDR-H3 and the human IgG1 constant region; light chain of D11; IgG1; Only the CDR-H3 is printed; also called D11 (parent); D11 IgG; source: ExpiCHO, transfected (pcIW3.3), secreted, purified (Protein G)

EC50 [4]: 0.93 nM
Kd [1]: 0.22 nM
koff [1]: 2.59e-05 s⁻¹
kon [1]: 913000 M⁻¹ s⁻¹
Kd [5]: 0.41 nM
koff [5]: 4.15e-05 s⁻¹
kon [5]: 101000 M⁻¹ s⁻¹
EC50 [2]: 0.93 nM
EC50 [6]: 36.8 nM
B2: anti-OSCAR antibody D11-B9, human IgG1 (affinity-matured variant of D11) (antibody, V domains shown)
VH: EVQLLESGGGLVQPGGSLRLSCAASGFTFSDYYWTWVRQAPGKGLEWVSGSPVFGAANYAQNFQGRFTISRDNSKNTLYLQMNSLRAEDTAVYYCAKAGIPGHFDIWGQGTLVTVSS
VL: B1 VL
notes: VH before CDR-H3, as the heavy chain of m3; rest of VH after CDR-H3 and the human IgG1 constant region, as the heavy chain of m3; as the light chain of m3 (only CDR-H3 was randomized); IgG1; Only the CDR-H3 is printed; From NNK randomization of residues H98-99 (Kabat); CDR-H3 is one residue shorter than the parent's; also called D11-4-B9; source: ExpiCHO, transfected (pcIW3.3), secreted, purified …

Kd [7]: 5.61 nM
koff [7]: 0.000512 s⁻¹
kon [7]: 91300 M⁻¹ s⁻¹
B3: human OSCAR extracellular domains fused to human IgG1 Fc (Fc fusion)
chain: T2 sequence
